The record followed here is paper PMC8062929, “ZmOrphan94 Transcription Factor Downregulates ZmPEPC1 Gene Expression in Maize Bundle Sheath Cells”.

Series [1] deals with T1, Trx::ZmOrphan94 (Zea mays B73, UniProt C0P6E9 1-264).
T1 sequence: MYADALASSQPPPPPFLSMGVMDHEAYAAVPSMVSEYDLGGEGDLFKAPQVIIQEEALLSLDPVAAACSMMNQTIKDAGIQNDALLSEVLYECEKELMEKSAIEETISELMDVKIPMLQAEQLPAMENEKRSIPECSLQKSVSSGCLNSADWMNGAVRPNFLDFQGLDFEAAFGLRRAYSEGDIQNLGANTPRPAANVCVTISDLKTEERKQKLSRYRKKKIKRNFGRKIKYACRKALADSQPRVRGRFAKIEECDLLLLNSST
Nature of the series: EMSA; out-competed by unlabelled WT probe (400x); EMSA: 1 ug protein, 50 fmol probe in 10 ul; 10 mM HEPES pH 7.9, 40 mM KCl, 1 mM EDTA, 1 mM DTT, 50 ng herring sperm DNA, 15 ug BSA, 10% glycerol, 1 h on ice; 5% native PAGE. The conditions noted are these: protein: recombinant; tags: N-terminal Trx (pET32a); label: 32P; 5' overhang 4 nt on each strand as annealed.

In series [2] the target is T1, Trx::ZmOrphan94. Description: EMSA; strongest band; out-competed by unlabelled WT probe (400x); EMSA: 1 ug protein, 50 fmol probe in 10 ul; 10 mM HEPES pH 7.9, 40 mM KCl, 1 mM EDTA, 1 mM DTT, 50 ng herring sperm DNA, 15 ug BSA, 10% glycerol, 1 h on ice; 5% native PAGE. The conditions noted are these: protein: recombinant; tags: N-terminal Trx (pET32a); label: 32P; 5' overhang 4 nt on each strand as annealed.

B1: 5U-ZmPEPC1-1 (dsDNA)
DNA 1: ACGTGGCGGTTACCGCCGATCACATGCCCAAGGCCG
DNA 2: ACATCGGCCTTGGGCATGTGATCGGCGGTAACCGCC
Consider B1, for which the binding result with Trx::ZmOrphan94 [1] is listed as “binds”.

B2: 5U-ZmPEPC1-2 (dsDNA)
DNA 1: ACGTGCGAGGGCCGCCCGTTCCCGTGCACAGCCACG
DNA 2: ATCACGTGGCTGTGCACGGGAACGGGCGGCCCTCGC
For the molecule B2, the binding result in the series with Trx::ZmOrphan94 [1] is “binds”.

B3: 5U-ZmPEPC1-3 (dsDNA)
DNA 1: ACGTGTCCCGTGCACAGCCACACACACACCCGCCCG
DNA 2: ATCACGGGCGGGTGTGTGTGTGGCTGTGCACGGGAC
As to B3, the binding result with Trx::ZmOrphan94 [2] was “binds”.
